According to the nanobody polyreactivity screen of Harvey et al. (2022):

Test: yeast display, Sf9 membrane polyspecificity reagent, FACS + sequencing; frameworks hold sequencing errors
Method in brief: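 Polyreactivity labels are assigned by the sorting gate from which each nanobody was recovered. The gates were low and high (top ~1%), set on anti-HA fluorescence for expression and streptavidin fluorescence for reagent binding. Before sorting, galactose-induced (36–48 hours) yeast display cells were stained for 1 hour at 4 °C with 10% biotinylated, detergent-solubilized Sf9 membrane reagent.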

QVQHVESGGGIVQAGGSLRLSCAASGITFDEYAMGWYRQAPGKEWELVATITWSGGSTYYADSVKGRFTISRVNAKNTVDLKMNSLKPEDSAVYYCAARDSGRYDDFGYWGQGTQVTVSS
polyreactivity (PSR sort gate): low polyreactivity

QVQHVESGGGIVQAGGSLRLSCAASGSIFRNNTMGWYRQAPGKERELVAAISGRGTRTSYADSVKGRFTISRDNAKNTVYLQMNSLKPEDTAVYYCAARSWYLYYWGQGTQVTVSS
polyreactivity (PSR sort gate): low polyreactivity

QVQHVESGGGIVQAGGSLRLSCAASGSTIVDNYMGWYRQAPGKERELVAVINSGGSTYYADSVKGRFTISRDNAKNTGYLQMNSLKPEDTAVYYCAADDIPYGSVYTSIGLDYWGQGTQVTVSS
polyreactivity (PSR sort gate): low polyreactivity

QVQHVESGGGIVQAGGSLRLSCSASGSTFFYNTMGWYRHAPGKERELVAAISYRTGSTYYADSVKGRFTISRDNAKNSVYLQMNSLKTEDTAVYYCNARYPYRYGYWGQGTQVTVSS
polyreactivity (PSR sort gate): high polyreactivity

QVQHVESGGGLFQAGGSHRLSCAASGRTFSKNAMGWYRQAPGKERELVAAINRGGTTKYADSVKGRFTISRDNAKNTVYLQMNSQKPEDTTVYYCAVDRQRAGYPKQYDSWGQGTQVTVSS
polyreactivity (PSR sort gate): low polyreactivity

QVQHVESGGGLGQAGGILRLSCAGCGRTFVRYAMGWYRQAPGNERELVAAITRSASTYYADSVKGRFTISRDNAKKTVDLQMTSLKPEDTSVYYCNAVWSRYRDLDFWGQGTQVTVSS
polyreactivity (PSR sort gate): high polyreactivity

QVQHVESGGGLVQAGASLRLSCAASGFTIRSYVRGWYRQAPGKEREIVAAISYRGGGTNYADSVKGRFTISRDNAKNTVYLHMNSLKPEDTAVYYCNARSGSSKSGYYYWGQGTQVTVSS
polyreactivity (PSR sort gate): high polyreactivity

QVQHVESGGGLVQAGASLRLSCAASGLTFRSNAMGWYSQAPGKERELVAAISSSGGSTYYADSVKGRFTISRDNAQNTVYLQMNSLKPEDTAVYYCAAEDPGDQYDYWGQGTQVTVSS
polyreactivity (PSR sort gate): high polyreactivity

QVQHVESGGGLVQAGGILRLICPDSGFTIRHKAMGWYRQAPGKEREFVAAISWYDGSTYADSVKGRFTISRDNAKYTVYIQLNCLKPEDTAVYFCNADYPSYRYFTGRHYWGQGTQVTVSS
polyreactivity (PSR sort gate): low polyreactivity

QVQHVESGGGLVQAGGRLRLSCAASGSIFAWYARGWYIQAPGKEREVVADITHSGGSTYYADSLKGRFTISRDNAKNTVYLQMYSLKPEDTAVSYCVDYWYNDLQSGWEDDYWGQGTQVTVAS
polyreactivity (PSR sort gate): low polyreactivity

QVQHVESGGGLVQAGGRLRLSCAASGSTFDYYVMGWYRQAPGKEREMVAAISQNAGSTYYADSVKGRFTISRDNAKNTVYLQMNSLKPEDTAVYYCAAPDYRNGVRYPLDYWGQGTQVTVSS
polyreactivity (PSR sort gate): low polyreactivity

QVQHVESGGGLVQAGGSHRLSCAASGSTFTYYAMGWYRQAPGKERELVAAISRGGSTYYADSVKGRFTISRDNAKNTVYLKKYSLKPEDTAVYYCAAERGYKKWSRGYWGQGTLVTVSS
polyreactivity (PSR sort gate): high polyreactivity

QVQHVESGGGLVQAGGSLLLSCAASGSIFEINAMGWYRQAPGKERELVADIRRGDSTNYADSVKGRFTNSRDNAKNTVYLQMNSLKPEDTAVYYCAARWRRSKYGVYPQRPYDYWGQGTQVTVSS
polyreactivity (PSR sort gate): high polyreactivity

QVQHVESGGGLVQAGGSLLLSCAASGSTFGFYTMGWYRQAPGKERELVAAISWSTGRTYYADSVKGRFTISRDNAKNTVYLQMNSLKPEDTAVYYCNADGYPEQVYYYSAFQGMDYWGQGTQVTVSS
polyreactivity (PSR sort gate): low polyreactivity

QVQHVESGGGLVQAGGSLRISCAASGFISTGNAMGWSRQAPGKERELVAAITTGGSTYYADSVKGRFTISRDNAKNTVYLQMNSLKPEDTAVYYCNAVYVWWDGWGLYYWGQGTQGTVSS
polyreactivity (PSR sort gate): low polyreactivity

QVQHVESGGGLVQAGGSLRLICAASGYIFRGYVMGWYRQAPGKERELVAAITSRGDSTYYADSVKGRFTISRDNAKNTVYLPMNSLKPEDTAVYYCAARGGVLKGYYYWGQGTQVTVSS
polyreactivity (PSR sort gate): high polyreactivity

QVQHVESGGGLVQAGGSLRLRCAASGSIFYRYVMGWYRQAHGKERELVAAISVSGGTTYYADSVKGRITISRDNAKNTVYLQMNRLKPEDTAVYYCAAEDSLTEDPAHDYWGQGTQVTVSS
polyreactivity (PSR sort gate): low polyreactivity

QVQHVESGGGLVQAGGSLRLSCAASGFIFAANAMGWYRQGPGKERELVAAINYRGSSTYYADSVKGRFTISRDNAKNTVNLQMNSLKPEDTAVYYCAARSGAQRGGGYWGQGTQVTVSS
polyreactivity (PSR sort gate): high polyreactivity

QVQHVESGGGLVQAGGSLRLSCAASGFIFPYYAMGWYRQAPGKERELVAAINSGTSTYYADSVKGRFTISRDNAKNTVYLQMNSLKPEDTAVYYCAAAYPLWYEYDYWGQGTQVTVSS
polyreactivity (PSR sort gate): low polyreactivity

QVQHVESGGGLVQAGGSLRLSCAASGFIFRSYAMGWFRQAPGKERELVAAISNGVITNYADSVKGRFTISRDNSKNTVYLQRNSLKPEDTAVYYCDADYNSQDDYWGQGTQVTVSS
polyreactivity (PSR sort gate): low polyreactivity

QVQHVESGGGLVQAGGSLRLSCAASGFIFSWNAMGWYRQAPGKERELVAGISWSGGSTYYADSVKGRFTISRDNAKNTVYLQMNRLKPEDTAVYYCAKEPSVGTGGVYRYGRGDYWGQGTQVTVSS
polyreactivity (PSR sort gate): low polyreactivity

QVQHVESGGGLVQAGGSLRLSCAASGFTFATYAMGWYRQAQGKERELVAAISRGTSTYYADSVKGRFTISRVNAKNTVYLQMNSLIPDDTAVYYCAATSSFRYDYWGKGTQVTVSS
polyreactivity (PSR sort gate): low polyreactivity

QVQHVESGGGLVQAGGSLRLSCAASGFTFGYYAMGWYRQAPGKERELVAAISGSGGGTYYADSVKGRFTISRDNAKNTVYLQMNSLKPEDTAVYYCNTGRYDRKYDYWGQGTQVTVSS
polyreactivity (PSR sort gate): high polyreactivity

QVQHVESGGGLVQAGGSLRLSCAASGFTFPGYAMGWYRQAPGKERELVAAISSSGGRTNYADSVKGRFTISRDNAKNTVYLQMNSLKPEDTAVYYCKAVRTVRSYLQLTRHLVYWGQGTQVTVSS
polyreactivity (PSR sort gate): high polyreactivity

QVQHVESGGGLVQAGGSLRLSCAASGFTFRHNAMGWYRQAPGKERELVAAMTKSGRRTYDADSVKGRFTISRDNAKNTVYLQMNSLKPEDTAVYYCKKDLRQSYANVDYWGQGTQVTVSS
polyreactivity (PSR sort gate): high polyreactivity

QVQHVESGGGLVQAGGSLRLSCAASGFTFRRYAMGWYRQAPGKERELVAAISINGGSTYYADSVKGRFTISRDNAMNTVYLQMNSLKPEDTAVYYCNKGSVRGEYDYWGQGTLVTVSS
polyreactivity (PSR sort gate): high polyreactivity

QVQHVESGGGLVQAGGSLRLSCAASGFTFSVYVLGWSRQAPGKERELVAAITWSGGSTYYADSEQGRITISRDHAKNTVYLQMNSQKPQETAVYYCAAQAFSPHYGWFYYWGQGTQVTVSS
polyreactivity (PSR sort gate): high polyreactivity

QVQHVESGGGLVQAGGSLRLSCAASGFTSTVYAMGCYRQAPGKERELVASITWSGGRTYYADSVKGRFTISRDNAKNTVYFQMNSLKPEDTAVYYCAARTYSYGSILKYYYWGQGSQVTVSS
polyreactivity (PSR sort gate): high polyreactivity

QVQHVESGGGLVQAGGSLRLSCAASGGIFYYNTMGWYRQAPGKERELVAAITGGGRTNYADSVKGRFTISRDNAKNTVYLQMNSLKPEDTAVYYCNAVYWRTRMDYWGQGTQVTVSS
polyreactivity (PSR sort gate): high polyreactivity

QVQHVESGGGLVQAGGSLRLSCAASGGTFYGYAMGCYRQAPGKERELVAVITYSGGSTYYADSVKGRFTISRDNAKNTVYLQMYSLKPEDTAVYYCAADVKYGYDWGQGTQVTVSS
polyreactivity (PSR sort gate): high polyreactivity

QVQHVESGGGLVQAGGSLRLSCAASGIIFGHYDMGWYRQAPGKERELVAAITFTGDSTYYADSVKGRFTISRDNAKITVYLQMNSLKPEDTAVYFCAADTPVPWGSWGYDYWGQGTQVTVSS
polyreactivity (PSR sort gate): low polyreactivity

QVQHVESGGGLVQAGGSLRLSCAASGITFNEYAMGWYRQAPGKEREFVAAISSSGARTYYADSVKGRFTISRDNAKNTVYLQMNSLKPEDTAVYYCAAVYRSWTSYNGRNYWGQGTQVTVSS
polyreactivity (PSR sort gate): high polyreactivity

QVQHVESGGGLVQAGGSLRLSCAASGITFSSYAMGWYRQAPGKERELVAAISSGGSTYYADSVKGRFTISRDNAKNTVYFQMNSLKPEDTAVYYCAAELATYVPNKWYYRYTGYYYWGQGTQVTVSS
polyreactivity (PSR sort gate): low polyreactivity

QVQHVESGGGLVQAGGSLRLSCAASGIYYNAMGWYRQAPGKERELVAVITYSGGSTYYADSVKGRFTISRDNAKNTVYLQMNSLKPEETAVYYCAADDYYVALPGLYDYWGQGTQVTVSS
polyreactivity (PSR sort gate): low polyreactivity

QVQHVESGGGLVQAGGSLRLSCAASGLTFSTYDMGWYRQAPGKERDLVAAITYSGGSTYYADSVKGRFTISRDHAKNTVYLQMNSLKPEDTAVYYSATTWYFVASWYVAIYDYWGQGTQVTVST
polyreactivity (PSR sort gate): low polyreactivity

QVQHVESGGGLVQAGGSLRLSCAASGLTIWYYAIGWYRQAPGKEREFVAAITSRGGDTYYADSVKGRFTISRDNAKNTVYLQLNSLKPEDTGVYYCAVRPRYYGTYRYYYWGQGTQVTVSS
polyreactivity (PSR sort gate): high polyreactivity

QVQHVESGGGLVQAGGSLRLSCAASGRIFGTYAMGWYRPAPGKERELVAAISWRGGSTYYADSVKGRFTISRDNAKNTVYLQMNSLKPEDTAVYYCAATWWSPSRGTKGDYWGQGTQVTVSS
polyreactivity (PSR sort gate): low polyreactivity

QVQHVESGGGLVQAGGSLRLSCAASGRIFQRNTMGWYRQAPGKERELVARINYSGGSTYYADSVKGRFTISRDNAKTTVYLQLNSLKPEDTAVYYCAARVWTWSIYYPAGLSSYDYWGQGTQVTVSS
polyreactivity (PSR sort gate): low polyreactivity

QVQHVESGGGLVQAGGSLRLSCAASGRIFSFYVMGWYRQAPGKERELVAVIRKNGGSTYYADSVKGRFTISRDNAKNTVYLQMNSLKPEDTAVYYCTARSVPRYGYWGLGTQVTVSS
polyreactivity (PSR sort gate): high polyreactivity

QVQHVESGGGLVQAGGSLRLSCAASGRIFVAYTMGWYRQAPGKERELVAGISRSGGSTYYADSVKGRFTISRDNAKNTVYLQMNNLKPEDTAVYYCAVGNWRLFPYGYWGQGTQVTVSS
polyreactivity (PSR sort gate): high polyreactivity

QVQHVESGGGLVQAGGSLRLSCAASGRIFYLNAMGWYRQAPGKERELVAAISRVGRTNYADSVKGRFTISRDNAKNTVYLQMNSLKPEDTAVYYCAAVYYSVNGRHGYWGQGTQVTVSS
polyreactivity (PSR sort gate): high polyreactivity

QVQHVESGGGLVQAGGSLRLSCAASGRIIRRNARGSYRLAPGKERELVAAISWSGGSTYYADSVKGRFTISRDNAKNSVDLQMNSLKQEDTAVYYCAAVPCYTGDYWGQGTQVTVSS
polyreactivity (PSR sort gate): low polyreactivity

QVQHVESGGGLVQAGGSLRLSCAASGRIYRKAMGWYRQAPGKERELVAVITRGGSTNYADSVKGRFTISRDNAKNSVYLQMNSLKPEDTAVYYCAATYSYRFSSFDYWGQGTQVTVSS
polyreactivity (PSR sort gate): high polyreactivity
